Source: IntAct's records for PubMed 35512704

B1: Speckle-type POZ protein (Homo sapiens), O43791 (parent)
chain: MSRVPSPPPPAEMSSGPVAESWCYTQIKVVKFSYMWTINNFSFCREEMGEVIKSSTFSSGANDKLKWCLRVNPKGLDEESKDYLSLYLLLVSCPKSEVRAKFKFSILNAKGEETKAMESQRAYRFVQGKDWGFKKFIRRDFLLDEANGLLPDDKLTLFCEVSVVQDSVNISGQNTMNMVKVPECRLADELGGLWENSRFTDCCLCVAGQEFQAHKAILAARSPVFSAMFEHEMEESKKNRVEINDVEPEVFKEMMCFIYTGKAPNLDKMADDLLAAADKYALERLKVMCEDALCSNLSVENAAEILILADLHSADQLKTQAVDFINYHASDVLETSGWKSMVVSHPHLVAEAYRSLASAQCPFLGPPRKRLKQS

Variants of: B1
Conditions: with PIK3C2B

| Variant | effect of a mutation on the interaction |
| --- | --- |
| F133L | with no effect |

Variants of: B1
Conditions: with pk3ca_human PIK3CA

| Variant | effect of a mutation on the interaction |
| --- | --- |
| F133L | with no effect |

Variants of: B1
Conditions: with pk3cg_human PIK3CG

| Variant | effect of a mutation on the interaction |
| --- | --- |
| F133L | with no effect |

Variants of: B1
Conditions: with p85b_human PIK3R2, O00459

| Variant | effect of a mutation on the interaction |
| --- | --- |
| F133L | with no effect |

Variants of: B1
Conditions: with dpod1_human POLD1, P28340

| Variant | effect of a mutation on the interaction |
| --- | --- |
| F133L | with no effect |

Variants of: B1
Conditions: with dpoe1_human POLE

| Variant | effect of a mutation on the interaction |
| --- | --- |
| F133L | with no effect |

Variants of: B1
Conditions: with ppard_human PPARD

| Variant | effect of a mutation on the interaction |
| --- | --- |
| F133L | with no effect |

Variants of: B1
Conditions: with prdm1_human PRDM1, O75626

| Variant | effect of a mutation on the interaction |
| --- | --- |
| F133L | with no effect |

Variants of: B1
Conditions: with prex2_human PREX2, Q70Z35

| Variant | effect of a mutation on the interaction |
| --- | --- |
| F133L | with no effect |

Variants of: B1
Conditions: with aapk2_human PRKAA2, P54646

| Variant | effect of a mutation on the interaction |
| --- | --- |
| F133L | with no effect |

Variants of: B1
Conditions: with prss8_human PRSS8, Q16651

| Variant | effect of a mutation on the interaction |
| --- | --- |
| F133L | with no effect |

Variants of: B1
Conditions: with tf65_human RELA

| Variant | effect of a mutation on the interaction |
| --- | --- |
| F133L | with no effect |

Variants of: B1
Conditions: with rictr_human RICTOR

| Variant | effect of a mutation on the interaction |
| --- | --- |
| F133L | with no effect |

Variants of: B1
Conditions: with rnf43_human RNF43, Q68DV7

| Variant | effect of a mutation on the interaction |
| --- | --- |
| F133L | with no effect |

Variants of: B1
Conditions: with ros1_human ROS1, P08922

| Variant | effect of a mutation on the interaction |
| --- | --- |
| F133L | with no effect |

Variants of: B1
Conditions: with rl11_human RPL11, P62913

| Variant | effect of a mutation on the interaction |
| --- | --- |
| F133L | with no effect |

Variants of: B1
Conditions: with rl5_human RPL5, P46777

| Variant | effect of a mutation on the interaction |
| --- | --- |
| F133L | with no effect |

Variants of: B1
Conditions: with rs15_human RPS15, P62841

| Variant | effect of a mutation on the interaction |
| --- | --- |
| F133L | with no effect |

Variants of: B1
Conditions: with rptor_human RPTOR

| Variant | effect of a mutation on the interaction |
| --- | --- |
| F133L | with no effect |

Variants of: B1
Conditions: with rxra_human RXRA

| Variant | effect of a mutation on the interaction |
| --- | --- |
| F133L | with no effect |

Variants of: B1
Conditions: with sdha_human SDHA

| Variant | effect of a mutation on the interaction |
| --- | --- |
| F133L | with no effect |

Variants of: B1
Conditions: with setbp_human SETBP1, Q9Y6X0

| Variant | effect of a mutation on the interaction |
| --- | --- |
| F133L | with no effect |

Variants of: B1
Conditions: with sf3b1_human SF3B1, O75533

| Variant | effect of a mutation on the interaction |
| --- | --- |
| F133L | with no effect |

Variants of: B1
Conditions: with skp2_human SKP2, Q13309

| Variant | effect of a mutation on the interaction |
| --- | --- |
| F133L | with no effect |

Variants of: B1
Conditions: with smad1_human SMAD1, Q15797

| Variant | effect of a mutation on the interaction |
| --- | --- |
| F133L | with no effect |

Variants of: B1
Conditions: with smca4_human SMARCA4, P51532

| Variant | effect of a mutation on the interaction |
| --- | --- |
| F133L | with no effect |

Variants of: B1
Conditions: with snf5_human SMARCB1, Q12824

| Variant | effect of a mutation on the interaction |
| --- | --- |
| F133L | with no effect |

Variants of: B1
Conditions: with smo_human SMO

| Variant | effect of a mutation on the interaction |
| --- | --- |
| F133L | with no effect |

Variants of: B1
Conditions: with smuf1_human SMURF1, Q9HCE7

| Variant | effect of a mutation on the interaction |
| --- | --- |
| F133L | with no effect |

Variants of: B1
Conditions: with socs1_human SOCS1, O15524
Chain of socs1_human SOCS1, O15524 (O15524 whole entry): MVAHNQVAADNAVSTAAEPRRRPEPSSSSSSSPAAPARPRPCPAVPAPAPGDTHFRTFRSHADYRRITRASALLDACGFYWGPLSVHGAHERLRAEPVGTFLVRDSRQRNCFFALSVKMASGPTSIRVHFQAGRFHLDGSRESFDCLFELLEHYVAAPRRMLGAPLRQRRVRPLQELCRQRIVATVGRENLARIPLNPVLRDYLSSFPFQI

| Variant | effect of a mutation on the interaction |
| --- | --- |
| F133L | with no effect |

Variants of: B1
Conditions: with sox10_human SOX10, P56693

| Variant | effect of a mutation on the interaction |
| --- | --- |
| F133L | with no effect |

Variants of: B1
Conditions: with sox2_human SOX2, P48431

| Variant | effect of a mutation on the interaction |
| --- | --- |
| F133L | with no effect |

Variants of: B1
Conditions: with src_human SRC

| Variant | effect of a mutation on the interaction |
| --- | --- |
| F133L | with no effect |

Variants of: B1
Conditions: with whr1_human WHR1, P49842
Chain of whr1_human WHR1, P49842 (P49842 whole entry): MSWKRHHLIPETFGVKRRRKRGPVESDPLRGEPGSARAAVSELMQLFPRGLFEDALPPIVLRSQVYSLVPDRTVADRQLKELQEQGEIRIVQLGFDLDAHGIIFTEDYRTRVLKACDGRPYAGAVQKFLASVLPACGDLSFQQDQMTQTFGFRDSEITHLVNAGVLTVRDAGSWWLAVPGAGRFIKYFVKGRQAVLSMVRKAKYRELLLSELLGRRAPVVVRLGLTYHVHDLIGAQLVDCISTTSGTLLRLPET

| Variant | effect of a mutation on the interaction |
| --- | --- |
| F133L | with no effect |

Variants of: B1
Conditions: with stk38_human STK38, Q15208

| Variant | effect of a mutation on the interaction |
| --- | --- |
| F133L | with no effect |

Variants of: B1
Conditions: with eloc_human ELOC

| Variant | effect of a mutation on the interaction |
| --- | --- |
| F133L | with no effect |

Variants of: B1
Conditions: with tfe2_human TCF3, P15923

| Variant | effect of a mutation on the interaction |
| --- | --- |
| F133L | with no effect |

Variants of: B1
Conditions: with tead1_human TEAD1, P28347

| Variant | effect of a mutation on the interaction |
| --- | --- |
| F133L | with no effect |

Variants of: B1
Conditions: with tead3_human TEAD3, Q99594
Chain of tead3_human TEAD3, Q99594 (Q99594 whole entry): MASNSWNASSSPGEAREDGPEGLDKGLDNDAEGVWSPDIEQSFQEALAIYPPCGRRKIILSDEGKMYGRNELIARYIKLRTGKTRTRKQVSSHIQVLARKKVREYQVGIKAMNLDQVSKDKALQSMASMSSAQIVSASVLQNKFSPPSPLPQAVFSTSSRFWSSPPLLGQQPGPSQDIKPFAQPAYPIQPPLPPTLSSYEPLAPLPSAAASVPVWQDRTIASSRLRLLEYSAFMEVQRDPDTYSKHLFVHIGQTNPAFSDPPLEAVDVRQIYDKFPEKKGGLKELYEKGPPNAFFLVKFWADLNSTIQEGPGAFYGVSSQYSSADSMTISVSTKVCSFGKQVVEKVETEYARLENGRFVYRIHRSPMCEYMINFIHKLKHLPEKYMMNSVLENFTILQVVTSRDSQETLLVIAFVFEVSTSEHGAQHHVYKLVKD

| Variant | effect of a mutation on the interaction |
| --- | --- |
| F133L | with no effect |

Variants of: B1
Conditions: with tead4_human TEAD4, Q15561

| Variant | effect of a mutation on the interaction |
| --- | --- |
| F133L | with no effect |

Variants of: B1
Conditions: with tet2_human TET2, Q6N021

| Variant | effect of a mutation on the interaction |
| --- | --- |
| F133L | with no effect |

Variants of: B1
Conditions: with TMEM106B

| Variant | effect of a mutation on the interaction |
| --- | --- |
| F133L | with no effect |

Variants of: B1
Conditions: with tnr14_human TNFRSF14, Q92956

| Variant | effect of a mutation on the interaction |
| --- | --- |
| F133L | with no effect |

Variants of: B1
Conditions: with tshr_human TSHR

| Variant | effect of a mutation on the interaction |
| --- | --- |
| F133L | with no effect |

Variants of: B1
Conditions: with vegfa_human VEGFA

| Variant | effect of a mutation on the interaction |
| --- | --- |
| F133L | with no effect |

Variants of: B1
Conditions: with vhl_human VHL

| Variant | effect of a mutation on the interaction |
| --- | --- |
| F133L | with no effect |

Variants of: B1
Conditions: with wee1_human WEE1, P30291

| Variant | effect of a mutation on the interaction |
| --- | --- |
| F133L | with no effect |

Variants of: B1
Conditions: with wwtr1_human WWTR1, Q9GZV5

| Variant | effect of a mutation on the interaction |
| --- | --- |
| F133L | with no effect |

Variants of: B1
Conditions: with xpo1_human XPO1, O14980

| Variant | effect of a mutation on the interaction |
| --- | --- |
| F133L | with no effect |

Variants of: B1
Conditions: with asxl2_human ASXL2, Q76L83
Chain of asxl2_human ASXL2, Q76L83 (Q76L83 whole entry): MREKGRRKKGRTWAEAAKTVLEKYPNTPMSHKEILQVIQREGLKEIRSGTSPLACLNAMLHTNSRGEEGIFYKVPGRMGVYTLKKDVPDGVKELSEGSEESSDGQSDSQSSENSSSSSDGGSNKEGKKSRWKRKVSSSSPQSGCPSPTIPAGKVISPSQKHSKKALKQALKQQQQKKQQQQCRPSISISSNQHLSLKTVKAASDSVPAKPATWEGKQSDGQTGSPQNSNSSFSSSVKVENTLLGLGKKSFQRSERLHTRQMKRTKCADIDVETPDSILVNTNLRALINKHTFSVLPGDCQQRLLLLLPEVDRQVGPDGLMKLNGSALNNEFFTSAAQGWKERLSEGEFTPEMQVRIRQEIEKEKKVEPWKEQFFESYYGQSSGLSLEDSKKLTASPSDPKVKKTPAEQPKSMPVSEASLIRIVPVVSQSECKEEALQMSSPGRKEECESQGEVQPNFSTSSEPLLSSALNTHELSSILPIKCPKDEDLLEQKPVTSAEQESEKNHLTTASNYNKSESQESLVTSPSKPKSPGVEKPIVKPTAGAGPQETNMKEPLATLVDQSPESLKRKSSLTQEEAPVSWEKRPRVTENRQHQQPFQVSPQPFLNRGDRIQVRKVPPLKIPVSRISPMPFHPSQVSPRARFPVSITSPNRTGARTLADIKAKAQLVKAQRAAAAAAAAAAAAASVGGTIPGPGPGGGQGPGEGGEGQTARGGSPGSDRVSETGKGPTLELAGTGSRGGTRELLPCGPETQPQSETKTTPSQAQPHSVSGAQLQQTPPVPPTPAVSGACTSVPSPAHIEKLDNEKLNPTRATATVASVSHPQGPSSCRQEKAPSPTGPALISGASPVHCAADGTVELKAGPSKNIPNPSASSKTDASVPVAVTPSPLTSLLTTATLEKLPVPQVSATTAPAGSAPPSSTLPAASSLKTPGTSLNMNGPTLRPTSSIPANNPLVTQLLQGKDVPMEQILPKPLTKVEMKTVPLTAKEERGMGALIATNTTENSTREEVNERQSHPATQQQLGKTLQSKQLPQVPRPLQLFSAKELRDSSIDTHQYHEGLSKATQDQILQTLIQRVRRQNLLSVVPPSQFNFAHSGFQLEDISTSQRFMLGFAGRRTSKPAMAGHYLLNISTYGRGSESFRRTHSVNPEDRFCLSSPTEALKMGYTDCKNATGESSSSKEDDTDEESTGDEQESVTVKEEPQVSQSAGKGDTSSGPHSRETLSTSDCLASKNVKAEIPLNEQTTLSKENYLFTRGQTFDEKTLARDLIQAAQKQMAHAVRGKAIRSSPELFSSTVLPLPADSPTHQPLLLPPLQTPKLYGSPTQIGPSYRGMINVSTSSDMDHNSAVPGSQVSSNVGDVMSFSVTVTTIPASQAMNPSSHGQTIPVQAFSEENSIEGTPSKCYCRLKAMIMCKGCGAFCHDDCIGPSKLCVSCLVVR

| Variant | effect of a mutation on the interaction |
| --- | --- |
| F133L | causing an interaction |

Variants of: B1
Conditions: with ufo_human AXL

| Variant | effect of a mutation on the interaction |
| --- | --- |
| F133L | causing an interaction |

Variants of: B1
Conditions: with birc2_human BIRC2, Q13490
Chain of birc2_human BIRC2, Q13490 (Q13490 whole entry): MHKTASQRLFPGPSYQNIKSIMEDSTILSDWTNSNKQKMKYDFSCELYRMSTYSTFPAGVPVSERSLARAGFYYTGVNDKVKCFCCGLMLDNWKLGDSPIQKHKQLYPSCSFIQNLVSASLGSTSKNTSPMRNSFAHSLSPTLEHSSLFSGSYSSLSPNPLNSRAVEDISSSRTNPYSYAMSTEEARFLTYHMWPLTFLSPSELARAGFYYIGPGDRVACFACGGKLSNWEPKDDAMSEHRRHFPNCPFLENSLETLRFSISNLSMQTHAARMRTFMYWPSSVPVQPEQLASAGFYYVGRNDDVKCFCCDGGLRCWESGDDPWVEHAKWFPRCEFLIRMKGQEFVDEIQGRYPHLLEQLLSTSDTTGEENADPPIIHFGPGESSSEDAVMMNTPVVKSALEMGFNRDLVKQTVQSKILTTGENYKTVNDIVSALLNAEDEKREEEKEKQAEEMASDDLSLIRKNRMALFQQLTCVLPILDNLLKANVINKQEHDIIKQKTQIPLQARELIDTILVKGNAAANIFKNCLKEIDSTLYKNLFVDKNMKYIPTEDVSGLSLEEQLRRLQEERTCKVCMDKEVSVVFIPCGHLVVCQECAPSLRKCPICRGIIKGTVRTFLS

| Variant | effect of a mutation on the interaction |
| --- | --- |
| F133L | causing an interaction |

Variants of: B1
Conditions: with cul4b_human CUL4B

| Variant | effect of a mutation on the interaction |
| --- | --- |
| F133L | causing an interaction |

Variants of: B1
Conditions: with jak1_human JAK1, P23458

| Variant | effect of a mutation on the interaction |
| --- | --- |
| F133L | causing an interaction |

Variants of: B1
Conditions: with pk3cb_human PIK3CB

| Variant | effect of a mutation on the interaction |
| --- | --- |
| F133L | causing an interaction |

Variants of: B1
Conditions: with tsc2_human TSC2, P49815

| Variant | effect of a mutation on the interaction |
| --- | --- |
| F133L | causing an interaction |

Variants of: B1
Conditions: with birc2_human BIRC2, Q13490
Remark: another data set of the same source

| Variant | effect of a mutation on the interaction |
| --- | --- |
| F133L | increasing interaction strength |

Variants of: B1
Conditions: with cblb_human CBLB

| Variant | effect of a mutation on the interaction |
| --- | --- |
| F133L | causing an interaction |

Variants of: B1
Conditions: with e2f5_human E2F5, Q15329

| Variant | effect of a mutation on the interaction |
| --- | --- |
| F133L | causing an interaction |

Variants of: B1
Conditions: with gata1_human GATA1, P15976

| Variant | effect of a mutation on the interaction |
| --- | --- |
| F133L | increasing interaction strength |

Variants of: B1
Conditions: with igf1r_human IGF1R

| Variant | effect of a mutation on the interaction |
| --- | --- |
| F133L | increasing interaction strength |

Variants of: B1
Conditions: with esr1_human ESR1, P03372

| Variant | effect of a mutation on the interaction |
| --- | --- |
| F133L | decreasing interaction strength |
